# Assay results: patent US20070134720
# Target: GST-fused P4HA1 protein (whole region of P4HA1)
# Sequence (chain, as listed by the source): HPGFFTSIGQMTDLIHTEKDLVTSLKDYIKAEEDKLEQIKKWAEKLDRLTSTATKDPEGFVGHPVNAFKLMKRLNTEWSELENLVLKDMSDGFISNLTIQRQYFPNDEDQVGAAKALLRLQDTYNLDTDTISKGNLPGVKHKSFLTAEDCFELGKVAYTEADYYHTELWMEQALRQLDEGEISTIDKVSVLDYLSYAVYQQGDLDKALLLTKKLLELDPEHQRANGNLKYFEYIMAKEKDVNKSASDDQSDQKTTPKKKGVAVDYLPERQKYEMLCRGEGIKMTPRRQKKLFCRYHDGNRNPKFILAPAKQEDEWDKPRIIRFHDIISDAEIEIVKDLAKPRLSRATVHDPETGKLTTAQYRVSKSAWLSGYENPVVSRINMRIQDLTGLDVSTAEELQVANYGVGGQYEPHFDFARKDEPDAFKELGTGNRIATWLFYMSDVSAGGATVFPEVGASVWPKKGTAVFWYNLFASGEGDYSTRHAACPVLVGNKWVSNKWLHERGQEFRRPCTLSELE
row,Protein,"in vitro ubiquitination (32P-labeled ubiquitin, E1, E2 UbCH5c, ATP; SDS-PAGE autoradiography)"
1,Syno RING synoviolin protein (GST moiety removed by thrombin) (protein) IRNMNTLYPDATPEELQAMDNVCIICREEMVTGAKRLPCNHIFHTSCLRSWFQRQQTCPTCRMDVLRASLPAQSPPPPEPADQGPPPAPHPPPLLPQPPNFPQGLLPPFPPGMFPLWPPMGPFPPVPPPPSSGEAVAPPSTSAAALSRPSGA,P4HA1 was ubiquitinated by Syno dTM and Syno RING
2,Syno dTM synoviolin protein (GST moiety removed by thrombin) (protein) KVHTFPLFAIRPMYLAMRQFKKAVTDAIMSRRAIRNMNTLYPDATPEELQAMDNVCIICREEMVTGAKRLPCNHIFHTSCLRSWFQRQQTCPTCRMDVLRASLPAQSPPPPEPADQGPPPAPHPPPLLPQPPNFPQGLLPPFPPGMFPLWPPMGPFPPVPPPPSSGEAVAPPSTSAAALSRPSGAATTTAAGTSATAASATASGPGSGSAPEAGPAPGFPFPPPWMGMPLPPPFAFPPMPVPPAGFAGLTPEELRALEGHERQHLEARLQSLRNIHTLLDAAMLQINQYLTVLASLGPPRPATSVNSTEGTATTVVAAASSTSIPSSEATTPTPGASPPAPEMERPPAPESVGTEEMPEDGEPDAAELRRRRLQKLESPVAH,P4HA1 was ubiquitinated by Syno dTM and Syno RING
3,Syno dTM (C307S) with 307th cysteine to serine substitution (GST moiety removed by thrombin) (protein) KVHTFPLFAIRPMYLAMRQFKKAVTDAIMSRRAIRNMNTLYPDATPEELQAMDNVCIICREEMVTGAKRLPSNHIFHTSCLRSWFQRQQTCPTCRMDVLRASLPAQSPPPPEPADQGPPPAPHPPPLLPQPPNFPQGLLPPFPPGMFPLWPPMGPFPPVPPPPSSGEAVAPPSTSAAALSRPSGAATTTAAGTSATAASATASGPGSGSAPEAGPAPGFPFPPPWMGMPLPPPFAFPPMPVPPAGFAGLTPEELRALEGHERQHLEARLQSLRNIHTLLDAAMLQINQYLTVLASLGPPRPATSVNSTEGTATTVVAAASSTSIPSSEATTPTPGASPPAPEMERPPAPESVGTEEMPEDGEPDAAELRRRRLQKLESPVAH,P4HA1 was not ubiquitinated by Syno dTM (C307S) and Syno dTM (dRING)
4,Syno dTM (dRING) with 291st to 329th amino acid deletion (GST moiety removed by thrombin) (protein) KVHTFPLFAIRPMYLAMRQFKKAVTDAIMSRRAIRNMNTLYPDATPEELQAMDNVRMDVLRASLPAQSPPPPEPADQGPPPAPHPPPLLPQPPNFPQGLLPPFPPGMFPLWPPMGPFPPVPPPPSSGEAVAPPSTSAAALSRPSGAATTTAAGTSATAASATASGPGSGSAPEAGPAPGFPFPPPWMGMPLPPPFAFPPMPVPPAGFAGLTPEELRALEGHERQHLEARLQSLRNIHTLLDAAMLQINQYLTVLASLGPPRPATSVNSTEGTATTVVAAASSTSIPSSEATTPTPGASPPAPEMERPPAPESVGTEEMPEDGEPDAAELRRRRLQKLESPVAH,P4HA1 was not ubiquitinated by Syno dTM (C307S) and Syno dTM (dRING)
